In PMC3936760 (Nucleic Acids Research, 2013):

Molecular target: full-length human poly(A)-binding protein (PABP, PABPC1) (human, UniProt P11940 1-636)
Assay: FRET or BRET

Sequence of full-length human poly(A)-binding protein (PABP, PABPC1) (P11940 whole entry): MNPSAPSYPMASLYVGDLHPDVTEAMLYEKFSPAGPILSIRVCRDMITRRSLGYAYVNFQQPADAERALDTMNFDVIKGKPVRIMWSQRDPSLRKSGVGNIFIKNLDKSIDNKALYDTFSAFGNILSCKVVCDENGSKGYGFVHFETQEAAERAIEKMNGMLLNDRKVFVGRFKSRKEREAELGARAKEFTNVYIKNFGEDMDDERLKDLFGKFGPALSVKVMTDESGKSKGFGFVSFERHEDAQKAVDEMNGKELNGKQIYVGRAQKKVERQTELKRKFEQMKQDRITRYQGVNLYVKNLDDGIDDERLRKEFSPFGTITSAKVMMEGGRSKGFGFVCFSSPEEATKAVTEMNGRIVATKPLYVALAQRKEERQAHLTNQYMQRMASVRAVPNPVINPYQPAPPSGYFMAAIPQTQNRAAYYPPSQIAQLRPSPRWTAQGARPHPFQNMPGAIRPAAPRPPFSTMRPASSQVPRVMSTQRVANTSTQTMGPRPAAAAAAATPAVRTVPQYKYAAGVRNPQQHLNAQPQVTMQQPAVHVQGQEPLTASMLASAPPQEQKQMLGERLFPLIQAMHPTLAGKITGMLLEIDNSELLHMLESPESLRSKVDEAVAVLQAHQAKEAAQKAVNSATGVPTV

B1: GST-tagged human PABP-interacting protein 2 (Paip2) (natural protein, UniProt Q9BPZ3 1-127, looked up)
chain: MKDPSRSSTSPSIINEDVIINGHSHEDDNPFAEYMWMENEEEFNRQIEEELWEEEFIERCFQEMLEEEEEHEWFIPARDLPQTMDQIQDQFNDLVISDGSSLEDLVVKSNLNPNAKEFVPGVKYGNI
- kon: 153000 M⁻¹ s⁻¹
